Assay results reported in patent US20250003951A1 (OXFORD UNIVERSITY INNOVATION, published 2025).

B1: OX289 Peptides 73/74 clone 1 TCR (TCR, V domains shown)
V domain 1: RGEDVEQSLFLSVREGDSSVINCTYTDSSSTYLYWYKQEPGAGLQLLTYIFSNMDMKQDQRLTVLLNKKDKHLSLRIADTQTGDSAIYFCAESPSDGQKLLFARGTMLKVDL
V domain 2: EAQVTQNPRYLITVTGKKLTVTCSQNMNHEYMSWYRQDPGLGLRQIYYSMNVEVTDKGDVPEGYKVSRKEKRNFPLILESPSPNQTSLYFCASSLRQGISPEQFFGPGTRLTVLE
B2: OX289 Peptides 73/74 clone 2 TCR (TCR)
TCR alpha: ELKVEQNPLFLSMQEGKNYTIYCNYSTTSDRLYWYRQDPGKSLESLFVLLSNGAVKQEGRLMASLDTKARLSTLHITAAVHDLSATYFCAVEETSGSRLTFGEGTQLTVNPDIQNPDPAVYQLRD
TCR beta 1: EAQVTQNPRYLITVTGKKLTVTCSQNMNHEYMSWYRQDPGLGLRQIYYSMNVEVTDKGDVPEGYKVSRKEKRNFPLILESPSPNQTSLYFCASSLRQGISPEQFFGPGTRLTVLEDLKNVFPPEVAVFEPS
TCR beta 2: EAQVTQNPRYLITVTGKKLTVTCSQNMNHEYMSWYRQDPGLGLRQIYYSMNVEVTDKGDVPEGYKVSRKEKRNFPLILESPSPNQTSLYFCASSERQGITEAFFGQGTRLTVVEDLNKVFPPEVAVFEPS
B3: OX289 Peptides 73/74 clone 3 TCR (TCR)
TCR alpha: AQSVTQLDSQVPVFEEAPVELRCNYSSSVSVYLFWYVQYPNQGLQLLLKYLSGSTLVKGINGFEAEFNKSQTSFHLRKPSVHISDTAEYFCAVSGTGANSKLTFGKGITLSVRPDIQNPDPAVYQLRD
TCR beta 1: GAGVSQSPSNKVTEKGKDVELRCDPISGHTALYWYRQSLGQGLEFLIYFQGNSAPDKSGLPSDRFSAERTGGSVSTLTIQRTQQEDSAVYLCASSDPISGRGDEQFFGPGTRLTVLEDLKNVFPPEVAVFEPS
TCR beta 2: GAGVSQSPSNKVTEKGKDVELRCDPISGHTALYWYRQSLGQGLEFLIYFQGNSAPDKSGLPSDRFSAERTGGSVSTLTIQRTQQEDSAVYLCASSFGGGAWNEQFFGPGTRLTVLEDLKNVFPPEVAVFEPS
B4: OX628 Peptides 80/81 clone 1 TCR (TCR, V domains shown)
V domain 1: GQQLNQSPQSMFIQEGEDVSMNCTSSSIFNTWLWYKQEPGEGPVLLIALYKAGELTSNGRLTAQFGITRKDSFLNISASIPSDVGIYFCAGHQIQGAQKLVFGQGTRLTINP
V domain 2: NAGVTQTPKFRILKIGQSMTLQCTQDMNHNYMYWYRQDPGMGLKLIYYSVGAGITDKGEVPNGYNVSRSTTEDFPLRLELAAPSQTSVYFCASSYSGMNTEAFFGQGTRLTVVE
B5: OX628 Peptides 80/81 clone 2 TCR (TCR, V domains shown)
V domain 1: GQQLNQSPQSMFIQEGEDVSMNCTSSSIFNTWLWYKQDPGEGPVLLIALYKAGELTSNGRLTAQFGITRKDSFLNISASIPSDVGIYFCAGANNNARLMFGDGTQLVVKP
V domain 2: SAVISQKPSRDICQRGTSLTIQCQVDSQVTMMFWYRQQPGQSLTLIATANQGSEATYESGFVIDKFPISRPNLTFSTLTVSNMSPEDSSIYLCSVTPGGGVNTEAFFGQGTRLTVVE
B6: OX628 Peptides 80/81 clone 3 TCR (TCR, V domains shown)
V domain 1: QKEVEQNSGPLSVPEGAIASLNCTYSDRGSQSFFWYRQYSGKSPELIMSIYSNGDKEDGRFTAQLNKASQYVSLLIRDSQPSDSATYLCAVSAGGTSYGKLTFGQGTILTVHP
V domain 2: DTAVSQTPKYLVTQMGNDKSIKCEQNLGHDTMYWYKQDSKKFLKIMFSYNNKELIINETVPNRFSPKSPDKAHLNLHINSLELGDSAVYFCASSQVLRGEQYFGPGTRLTVTE
B7: OX747 Peptides 157/158 clone 1 TCR (TCR)
TCR alpha 1: KNEVEQSPQNLTAQEGEFITINCSYSVGISALHWLQQHPGGGIVSLFMLSSGKKKHGRLIATINIQEKHSSLHITASHPRDSAVYICAVSTGGATNKLIFGTGTLLAVQPNIQNPDPAVYQLRD
TCR alpha 2: KNEVEQSPQNLTAQEGEFITINCSYSVGISALHWLQQHPGGGIVSLFMLSSGKKKHGRLIATINIQEKHSSLHITASHPRDSAVYICAVQEGETSGSRLTFGEGTQLTVNPDIQNPDPAVYQLRD
TCR beta: NAGVTQTPKFQVLKTGQSMTLQCAQDMNHEYMSWYRQDPGMGLRLIHYSVGAGITDQGEVPNGYNVSRSTTEDFPLRLLSAAPSQTSVYFCASSPGFNGNTIYFGEGSWLTVVEDLNKVFPPEVAVFEPS
B8: OX747 Peptides 157/158 clone 2 TCR (TCR, V domains shown)
V domain 1: AQKVTQAQTEISVVEKEDVTLDCVYETRDTTYYLFWYKQPPSGELVFLIRRNSFDEQNEISGRYSWNFQKSTSSFNFTITASQVVDSAVYFCALSEATYNTDKLIFGTGTRLQVFP
V domain 2: ETGVTQSPTHLIKTRGQQVTLRCSSQSGHNTVSWYQQALGQGPQFIFQYYREEENGRGNFPPRFSGLQFPNYSSELNVNALELDDSALYLCASSSTGTDYGYTFGSGTRLTVVE
B9: OX747 Peptides 157/158 clone 3 TCR (TCR, V domains shown)
V domain 1: QKEVEQNSGPLSVPEGAIASLNCTYSDRGSQSFFWYRQYSGKSPELIMFIYSNGDKEDGRFTAQLNKASQYVSLLIRDSQPSDSATYLCAGRQTSYDKVIFGPGTSLSVIP
V domain 2: not shown
B10: OX747 Peptides 157/158 clone 4 TCR (TCR, V domains shown)
V domain 1: AQKVTQAQTEISVVEKEDVTLDCVYETRDTTYYLFWYKQPPSGELVFLIRRNSFDEQNEISGRYSWNFQKSTSSFNFTITASQVVDSAVYFCALSEMNRDDKIIFGKGTRLHILP
V domain 2: NAGVMQNPRHLVRRRGQEARLRCSPMKGHSHVYWYRQLPEEGLKFMVYLQKENIIDESGMPKERFSAEFPKEGPSILRIQQVVRGDSAAYFCASSPTGVSGNTIYFGEGSWLTVVE
B11: OX747 Peptides 157/158 clone 5 TCR (TCR, V domains shown)
V domain 1: GQQLNQSPQSMFIQEGEDVSMNCTSSSIFNTWLWYKQDPGEGPVLLIALYKAGELTSNGRLTAQFGITRKDSFLNISASIPSDVGIYFCAGQQKTSGSRLTFGEGTQLTVNP
V domain 2: DGGITQSPKYLFRKEGQNVTLSCEQNLNHDAMYWYRQDPGQGLRLIYYSQIVNDFQKGDIAEGYSVSREKKESFPLTVTSAQKNPTAFYLCASSSPRDRVGQPQHFGDGTRLSILE
B12: OX1149 Peptide 190 clone 1 TCR (TCR, V domains shown)
V domain 1: SQQGEEDPQALSIQEGENATMNCSYKTSINNLQWYRQNSGRGLVHLILIRSNEREKHSGRLRVTLDTSKKSSSLLITASRAADTASYFCATDEAAGNKLTFGGGTRVLVKP
V domain 2: EPEVTQTPSHQVTQMGQEVILRCVPISNHLYFYWYRQILGQKVEFLVSFYNNEISEKSEIFDDQFSVERPDGSNFTLKIRSTKLEDSAMYFCASKRESLATGELFFGEGSRLTVLE
B13: OX1149 Peptide 190 clone 2 TCR (TCR, V domains shown)
V domain 1: SQQGEEDPQALSIQEGENATMNCSYKTSINNLQWYRQNSGRGLVHLILIRSNEREKHSGRLRVTLDTSKKSSSLLITASRAADTASYFCAAMYSGGGADGLTFGKGTHLIIQP
V domain 2: EPEVTQTPSHQVTQMGQEVILRCVPISNHLYFYWYRQILGQKVEFLVSFYNNEISEKSEIFDDQFSVERPDGSNFTLKIRSTKLEDSAMYFCASSTQGQAYEQYFGPGTRLTVTE
B14: OX1149 Peptide 190 clone 3 TCR (TCR, V domains shown)
V domain 1: GENVEQHPSTLSVQEGDSAVIKCTYSDSASNYFPWYKQELGKRPQLIIDIRSNVGEKKDQRIAVTLNKTAKHFSLHITETQPEDSAVYFCAARGGSNYKLTFGKGTLLTVNP
V domain 2: DAGVIQSPRHEVTEMGQEVTLRCKPISGHDYLFWYRQTMMRGLELLIYFNNNVPIDDSGMPEDRFSAKMPNASFSTLKIQPSEPRDSAVYFCASSTGGEQYFGPGTRLTVTE
B15: OX1149 Peptide 190 clone 4 TCR (TCR, V domains shown)
V domain 1: SQQGEEDPQALSIQEGENATMNCSYKTSINNLQWYRQNSGRGLVHLILIRSNEREKHSGRLRVTLDTSKKSSSLLITASRAADTASYFCATKGGNNRLAFGKGNQVVVIP
V domain 2: EPEVTQTPSHQVTQMGQEVILRCVPISNHLYFYWYRQILGQKVEFLVSFYNNEISEKSEIFDDQFSVERPDGSNFTLKIRSTKLEDSAMYFCASSAWTGETGYTFGSGTRLTVVE
B16: OX1149 Peptide 190 clone 5 TCR (TCR, V domains shown)
V domain 1: DQQVKQNSPSLSVQEGRISILNCDYTNSMFDYFLWYKKYPAEGPTFLISISSIKDKNEDGRFTVFLNKSAKHLSLHIVPSQPGDSAVYFCAATRAGGTSYGKLTFGQGTILTVHP
V domain 2: SQTIHQWPATLVQPVGSPLSLECTVEGTSNPNLYWYRQAAGRGLQLLFYSVGIGQISSEVPQNLSASRPQDRQFILSSKKLLLSDSGFYLCAWSVLAGVSQYFGPGTRLLVLE

What was measured:
Assay in all cases: cell-based or functional assay
OX289-073 = target: T1, OX289-073 (human)
T1 peptide: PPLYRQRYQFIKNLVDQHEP

OX289-074 = target: T2, OX289-074 (human)
T2 peptide: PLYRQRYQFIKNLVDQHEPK

OX628-81 = target: T3, OX628-81 (human)
T3 peptide: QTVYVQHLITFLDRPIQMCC

OX628-80 = target: T4, OX628-80 (human)
T4 peptide: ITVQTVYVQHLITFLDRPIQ

OX747-158 = target: T5, OX747-158 (human)
T5 peptide: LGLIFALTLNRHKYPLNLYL

OX747-157 = target: T6, OX747-157 (human)
T6 peptide: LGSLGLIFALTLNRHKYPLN

OX1149-190 = target: T7, OX1149-190 (human)
T7 peptide: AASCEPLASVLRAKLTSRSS

Binder	Clone size (percent repertoire), IFNγ+ sorted T cells after peptide stimulation (OX747-158)	Clone size (percent repertoire), IFNγ+ sorted T cells after peptide stimulation (OX747-157)	Clone size (percent repertoire), IFNγ+ sorted T cells after peptide stimulation (OX1149-190)	further results
B1				Clone size (percent repertoire), IFNγ+ sorted T cells after peptide stimulation (OX289-073): 32.3 % of repertoire; Clone size (percent repertoire), IFNγ+ sorted T cells after peptide stimulation (OX289-074): 32.3 % of repertoire
B2				Clone size (percent repertoire), IFNγ+ sorted T cells after peptide stimulation (OX289-073): 25.6 % of repertoire; Clone size (percent repertoire), IFNγ+ sorted T cells after peptide stimulation (OX289-074): 25.6 % of repertoire
B3				Clone size (percent repertoire), IFNγ+ sorted T cells after peptide stimulation (OX289-073): 8.67 % of repertoire; Clone size (percent repertoire), IFNγ+ sorted T cells after peptide stimulation (OX289-074): 8.67 % of repertoire
B4				Clone size (percent repertoire), IFNγ+ sorted T cells after peptide stimulation (OX628-81): 55.1 % of repertoire; Clone size (percent repertoire), IFNγ+ sorted T cells after peptide stimulation (OX628-80): 55.1 % of repertoire
B5				Clone size (percent repertoire), IFNγ+ sorted T cells after peptide stimulation (OX628-81): 13.5 % of repertoire; Clone size (percent repertoire), IFNγ+ sorted T cells after peptide stimulation (OX628-80): 13.5 % of repertoire
B6				Clone size (percent repertoire), IFNγ+ sorted T cells after peptide stimulation (OX628-81): 4.2 % of repertoire; Clone size (percent repertoire), IFNγ+ sorted T cells after peptide stimulation (OX628-80): 4.2 % of repertoire
B7	15.5 % of repertoire	15.5 % of repertoire		
B8	9.8 % of repertoire	9.8 % of repertoire		
B9	8.7 % of repertoire	8.7 % of repertoire		
B10	7.9 % of repertoire	7.9 % of repertoire		
B11	7.7 % of repertoire	7.7 % of repertoire		
B12			18.3 % of repertoire	
B13			17.3 % of repertoire	
B14			9 % of repertoire	
B15			5.7 % of repertoire	
B16			4.8 % of repertoire	
